Source: the RNAGym collection of RNA variant scans (doi:10.1073/pnas.2313332121)

B1: TPR t1 (parent)
chain: GACCAAUCUGCCCUCAGAGCUCGAGAACAUCUUCGGAUGCAGAGGAGGCAGGCUUCGGUGGCGCGAUAGCGCCAACGUCCUCAACCUCCAAUGCAUCCCACCACAUGAUGAUGCCUGAAGAGCCUUGGUUUUUUG

Variants of: B1
Test: polymerase ribozyme fitness, log enrichment relative to wild type (log ratio); higher = more active; in vitro selection for triplet polymerase activity
Method in brief: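 After PCR construction and transcription, each subunit's mutant library from a heterodimeric triplet polymerase ribozyme was annealed with a biotinylated primer, the partner subunit and triplets. Incubation was frozen, at −7 °C, and extended constructs were gel-excised, bound to streptavidin beads and amplified by RT-PCR, in one selection round done in triplicate. Fitness is the logarithm of a genotype's enrichment divided by that of the wild type, from inverse-variance-weighted replicate averages of Illumina-sequenced inputs and outputs. The base of the logarithm is 2, and genotypes needed ≥10 input reads and ≥1 read per output.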

Variant | polymerase ribozyme fitness (log ratio)
GACCAAUCUGCCCUCAGAGCUCGAGAACAUCUUCGGAUGCAGAGGAGGCAGGCGUCGGUGGCGCGAUAUCGCCAACGUCCUCAACCUCCAAUGCAUCCCACCACAUGAUGAUGCCUGAAGAGCCUUGGUUUUUUG [U54G G69U] | -0.782
GACCAAUCUUCCCUCAGAGCUCGAGAACAUCUUAGGAUGCAGAGGAAGCAGGCUUCGGUGGCGCGAUAGCGCCAACGUCCUCAACCUCCAAUGCAUCCCACCACAUGAUGAUGCCUGAAGAGCCUUGGUUUUUUG [G10U C34A G47A] | -3.85
GACCAAUGUGCCCUCAGAGCUCGAGAACAUCUUCGGAUGCAGAGGAGGCUGGGUUCGGUGGCGCGAUAGCGCCAACGUCCUCAACCUCCAAUGCAUCCUACCAAAUGAUGAUGCAUGAAGCGCCUUGGUUUUUUG [C8G A50U C53G C99U C104A C115A A121C] | -7
GACCAAUCUGCCCUCAGAGCUCGAGAACAUUUUCGGAUGCAGAGGAGGCAGGCUUCGGUGGCGCGAUAGCGCCAACGUCCUCAACCCCCAAUGCAUCCCACCACAUGAUGAUUCCUGAAGAGGCUUGGUUUAUUG [C31U U87C G113U C123G U132A] | -5.61
GACCAAUCUGCCCUCAGAGCUCGAGAACAUCUUCGGAUGCAGAGGAGGCAGGAUUCGGUGGCGCGAUAGCGCCAACGUCCUCAACCUCCAAUGCAUCCCACCACAUGAUGAUGCCUGAAGAGCCUUGAUUUUUUG [C53A G128A] | -1.61
GACCAAUCUGCCCUCAGAGCUGGAGAACAUCUUCGGAUGCAGAGGAGGCAGGCUUCGGUGGCGCGAUAGCGCCAACGUCCUCAACAUCCAAUGCAUCCCACCACAUGAUGAUGCCUGAAGAGCCUUGGUUUUUUG [C22G C86A] | -3.83
GACCAAUCUGCCCUGAGAGCUCGAGAACAUCUUCGGAUGCAGAGGAGGCAGGCUUCGGUGGCGCGAUAGCGCAAACGUCCUGAACCUCCAAUGCAUCCCACCACAUGAUGAUGCCUUAAGAGCCUUGGUCUUUUG [C15G C73A C82G G117U U130C] | -0.6
GACCAAUCUGCCCACAGAGCUCGAGAACAUCUUCGGAUGCAGAGGAGGCAGGCUUCGGUGGCGCGAUAGGGCCAACGUCCUCAACCUCCAAUGCAUCCCACCACAUGAUGAUGCCUGAAGAGCCUCGGUUUUUUU [U14A C70G U126C G135U] | -4.99
GACCAAUCUGCCCUCAGAGCUCGAGAACAUCUUCGGAUGCAGAGGAGGCAGGCUUCGGUGGCGCGAUAGCGCCAACGCCCUCAACCUCCAAUGCAUCCCACCACAUGAUGAUUCCUGAAGAGCCUUGGUUUUUUG [U78C G113U] | -3.31
GACCAAUCUGCCCUCAGAGCUCGAGAACAUCUUCGGAUGCAGAGGAGGCCGGCUUCGGUGGCGCGAUAUCGCCAACGUCCUCAACCUCCAAUGCAUCCCACCACAUGAUGAUGCCUGAAGAGCCUUGGUUUUUUG [A50C G69U] | -0.0602
GACCAAUCUGCCCUCAGAGCUCGAGAACAUCUUCGGAUGCAGAGGAGGCAGCCUUCGGUGGCGCGAUAGCGCCAACGUCCUCAACCUCCAAUGCAUCCCACCACAUGAUGAUGCCUGAAGAGCCUUGGUUUAUUG [G52C U132A] | -1.09
GACCAGUCUGCCCUCAGAGCUCGAGAACAUCUUCGGAUGCAGAGGAGGCAGGCUUCGACGGCGCGAUAGCGCCAACGUCCUCAACCUCCAAUGCAUCCCACCACAUGAUGAUGCCUGAAGAGCCUUGGUUUUUUG [A6G G58A U59C] | -1.72
GACCAAUCUGCCAUCAGAGCUCGAGAACAUCUUCGGAUGCAGAGGAGGCAGGCUUCGGUGGCGCGAUAGCGCCAACGUCCUCAACCUCCACUGCACCCCACCACAUGAUGAUGCCUGAAGAGCCUUGGUUUUUUG [C13A A91C U96C] | -2.79
GACCAAUCUGCCCUCAGAGCUCGAGAACAUUUUCGGAUGCAGAGGAGGCAGGCUUCGGUAGCGCGAUAGCACCAACGGCCUCAACCUCCAAUGCAUCCCAUCACAUGAUUAUGCCUGAAGAGCCAUGGUUUUUUG [C31U G60A G71A U78G C101U G110U U125A] | -6.74
GACCAAUCUGCCCUCAGAGCUCGAGAACAUCUACGGAUGCAGAGGAGGCAGGCUUCGGUGGCGCGAUAGCGCCAACGUCCACAACCUCCAAUGCAUCCCACGACAUGAUCAUGCGUGAAGAGCCUUGGUUUUUUG [U33A U81A C102G G110C C115G] | -6.08
GACCAAUCUGCUCCGAGAGCUCGAGAACAUCUUCGGAUGCCGAGGAGGCAGGCUUCGGUGGCGCGAUAGCGCCAACGUCCUCAACCUCCAAUGCAUCCCACCACAUGAUGAAGCCUGAAGAGCCUUGGUUUUUUG [C12U U14C C15G A41C U112A] | -2.25
GACCAAUCUGCGCUCAGAGCUCGAGAACAUCUUCGGAUGCAGAGGAGGCAGGCUUCGGUGGCGCGAUAGCGCCAACGUCCUCAACCUCCAAUGCAUCCCACAACAUGAUGAUGCCUGAAGAGCCUUGGUUUUUUG [C12G C102A] | -1.85
GACCAAUCUGCCCUCAGAGCUCGAGAACAUCUUCGGAUGCAGAGGAGGCAGGCUUCGGUCGCGCGAUAGCGCCAACGUCCUCAACCUCCAAUGCAUCCCACCACAUGAUGAUGCCUGAAGAGCCAUGGUUUUUUG [G60C U125A] | -0.729
GACCAAUCUGCCCUCAGAGCUCGAGAACAUCUUCGGAUGCAGAGGAGACAGGCUUCGGUGGCGCGAUAGCGCCAACGUCCUCAACCUCCAAUGCAUCCCACCACAUGAUGAUGCUUGAAGAGCCUUGGUUUUUUG [G48A C115U] | -1.61
GACCAAUCUGCCCUCAGAGCUCGAGAACAUCUUCGGAUGCAGAGGAGGCAGGCUUCAGUGGCGCGAUAGCGCCAACGUCCCCAACCUCCAAUCCAUCCCACCACAUGAUGAUGCCUGAAAAGCCUUGGUUUUUUG [G57A U81C G93C G120A] | -1.39
GACCAAUCUGCCCUCAGAGCUCGAGAACAUCUUCGGAUGCAGAGGAGGCAGGCUUCGGUGGCGCGCUAGCGCCAACGUCCUCAACCUCCAAUGCGUCCCACCACAUGAUGAUGCCUGAAGAGCCUUGGUUUUUUG [A66C A95G] | -1.6
